# Test results from patent publication US20120014941A1 (Hoffmann-La Roche, published 2012).
# Like-named read-outs stand apart in the source and are kept apart here.
# T1: recombinant human Bv8 (PeproTech) (human, UniProt Q9HC23-2 28-108, biotinylated (Sulfo-NHS-LC-biotin) in the two competition ELISAs with coated antibody)
# T1 construct: Bought protein; also called HuBv8; prokineticin-2
# T1 sequence (looked up): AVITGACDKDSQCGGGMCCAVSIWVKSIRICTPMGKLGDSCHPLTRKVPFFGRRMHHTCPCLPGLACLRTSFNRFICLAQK
# Tests used:
# [1] = molecular target: T1, recombinant human Bv8 (PeproTech); assay: competitive ELISA: antibody in serial dilution mixed with biotinylated human Bv8 (57 pM) and put on plate coated with mouse 2G9 IgG1 (m5, the competitor); streptavidin-HRP, OD 450/620; four-parameter fit
# Experimental: Maxisorp 384 well plates were coated with 1 μg/ml parent mouse 2G9 IgG1 antibody at 25 μl/well in 50 mM sodium carbonate buffer, pH 9.6, at 4° C. overnight. Plates were washed with phosphate buffered saline (PBS) containing 0.05% polysorbate, pH 7.4 and blocked with PBS containing 0.5% BSA, 10 ppm Proclin, pH 7.4, at 80 μL1/well. After one-hour incubation at room temperature, plates were washed. A mixture of serially diluted humanized 2G9 antibodies (0.11 pM-180 nM) in PBS containing 0.5% BSA, 0.05% polysorbate 20, pH 7.4 and biotinylated human Bv8 (final concentration 0.5 ng/ml or 57 pM) were added at 25 μL1/well. After two hour incubation, plates were washed and horseradish peroxidase conjugated streptavidin (GE Healthcare) was added. After a final 30 minute incubation, plates were washed and the substrate 3,3′,5,5′-tetramethyl benzidine (Kirkegaard & Perry Laboratories) was added. The reaction was stopped by adding 1 M phosphoric acid and absorbance was read at 450 nm on a Multiskan Ascent reader (Thermo Scientific, Hudson, N.H.). For data analysis, the titration curves were fitted using a four-parameter nonlinear regression curve-fitting program and the IC₅₀ concentrations were determined (KaleidaGraph, Synergy Software, Reading, Pa.).
# [2] = molecular target: T1, recombinant human Bv8 (PeproTech); assay: competition ELISA: IgG in serial dilution preincubated with 2 nM biotinylated human Bv8, then put on plate coated with chimeric 2B9 IgG (the competitor); bound biotin-Bv8 read with streptavidin-HRP, in %
# Experimental: NUNC™ 96-well Maxisorp immunoplates (NUNC; Roskilde, Denmark) were coated with chimeric 2B9 IgG at 1 μg/mL in PBS overnight and then blocked for an hour at room temperature with PBST buffer (0.5% BSA and 0.05% Tween 20 in PBS). Biotinylation of human Bv8 was prepared using EZ-link Sulfo-NHS-LC-Biotin (Catalog 21335; Pierce; Rockford, Ill.) reagent in a molar ratio of 1:4 (HuBv8: biotin).
# To determine the amount of biotinylated human Bv8 in the competition assay, threefold serially diluted biotinylated human Bv8 from 100 nM to 0.04 nM were added to the antibody-coated plates for 15 minutes. Then, the plates were washed with PBT buffer (PBS and 0.05% Tween 20). Bound biotinylated were detected using streptavidin, which were conjugated with horseradish peroxidase (Catalog 21126; Pierce; Rockford, Ill.) and diluted 1:2500 in PBST buffer. […] The optical density was read spectrophotometrically at 450 nm.
# To map the Bv8 antibody epitopes with chimeric 2B9, threefold serial dilutions of IgGs (chimeric 2B9, chimeric 3F1, chimeric 2D3, chimeric 2G9 and control IgG) were first incubated with 2 nM biotinylated human Bv8, determined by the above binding assay, in PBST buffer for 1-2 hours at room temperature, and then transferring it onto antibody (chimeric 2B9 IgG; 1 μg/mL)-coated plate for 15 min. […]
# [3] = molecular target: T1, recombinant human Bv8 (PeproTech); assay: SPR (BIAcore 3000, 25 C): human Bv8 coupled to CM5 chip, IgG injected; 1:1 Langmuir fit
# Source text: (§1) For binding affinity determinations of anti-Bv8 antibodies (Fab or IgG), Surface Plasmon Resonance (SRP) measurement with a BIAcore™-3000 instrument was used. Briefly, CM5 biosensor chip was activated with EDC and NHS reagents according to the supplier's instructions, and human Bv8 (PeproTech) or Cynomologus Monkey (Genentech; PUR21590) was coupled to achieve approximately 150 response units (RU), then following by blocking un-reacted groups with 1M ethanolamine. For kinetics measurements, two-fold serial dilutions of anti-Bv8 Fabs (0.19 nM to 25 nM) or IgGs (0.019 nM to 10 nM) were injected in HBS-P buffer (0.01M HEPES pH 7.4, 0.15M NaCl, 0.005% surfactant P20) at 25° C. with a flow rate of 30 μl/min. Association rates (kₒₙ) and dissociation rates (koff) were calculated using a simple one-to-one Langmuir binding model (BIAcore Evaluation Software version 3.2). The equilibrium dissociation constant (Kd) was calculated as the ratio koff/kₒₙ.
# [4] = molecular target: Cynomologus Monkey Bv8 (Genentech; PUR21590) (cynomolgus monkey); assay: SPR (BIAcore 3000, 25 C): cynomolgus monkey Bv8 coupled to CM5 chip, IgG injected; 1:1 Langmuir fit
# [5] = molecular target: T1, recombinant human Bv8 (PeproTech); assay: SPR (BIAcore 3000, 25 C): human Bv8 coupled to CM5 chip, IgG injected; 1:1 Langmuir fit; off-rate followed for 30 min
# Source text: as §1
# [6] = molecular target: T1, recombinant human Bv8 (PeproTech); assay: as above; remark: listed apart in the source
# Source text: as §1
# [7] = molecular target: Cynomologus Monkey Bv8 (Genentech; PUR21590) (cynomolgus monkey); assay: SPR (BIAcore 3000, 25 C): cynomolgus monkey Bv8 coupled to CM5 chip, IgG injected; 1:1 Langmuir fit; off-rate followed for 30 min
# [8] = molecular target: T1, recombinant human Bv8 (PeproTech); assay: SPR, BIAcore-3000, Bv8 coupled to CM5 chip, IgG (FIG. 21)
# Source text: as §1
# [9] = molecular target: Cynomologus Monkey Bv8 (Genentech; PUR21590) (cynomolgus monkey); assay: as above
# [10] = molecular target: T1, recombinant human Bv8 (PeproTech); assay: SPR (BIAcore 3000, 25 C): human Bv8 coupled to CM5 chip, IgG injected; 1:1 Langmuir fit; remark: listed apart in the source
# Source text: as §1
# [11] = molecular target: Cynomologus Monkey Bv8 (Genentech; PUR21590) (cynomolgus monkey); assay: SPR (BIAcore 3000, 25 C): cynomolgus monkey Bv8 coupled to CM5 chip, IgG injected; 1:1 Langmuir fit; remark: listed apart in the source
# [12] = molecular target: T1, recombinant human Bv8 (PeproTech); assay: phage competition ELISA: Fab-displaying phage preincubated with serially diluted soluble human Bv8 (the concentration on the axis), unbound phage captured on plate-coated human Bv8, anti-M13-HRP; bound phage in %
# Experimental: (§2) MAXISORP™ microtiter plates were coated with recombinant human Bv8 (PeproTech) at 2 μg/ml in PBS overnight and then blocked with PBST buffer (0.5% BSA and 0.05% Tween 20 in PBS) for an hour at room temperature (RT). Phage from culture supernatants were incubated with serially diluted human Bv8 in PBST buffer in a tissue-culture microtiter plate for an hour at RT, after which 80 μl of the mixture was transferred to the target-coated wells for 15 minutes to capture unbound phage. The plate was washed with PBT buffer (0.05% Tween 20 in PBS), and HRP-conjugated anti-M13 (Amersham Pharmacia Biotech) was added (1:5000 in PBST buffer) for 40 minutes. The plate was washed with PBT buffer and developed by adding tetramethylbenzidine substrate (Kirkegaard and Perry Laboratories, Gaithersburg, Md.). The absorbance at 450 nm was plotted as a function of target concentration in solution to determine phage IC₅₀.
# [13] = molecular target: T1, recombinant human Bv8 (PeproTech); assay: phage competition ELISA, Fab displayed on phage
# Experimental: as §2
IC50 [1],IC50 (read off the curve) [2],Kd [3],koff [3],kon [3],Kd [4],koff [4],kon [4],Kd [5],koff [5],Kd [6],koff [6],Kd [7],koff [7],fold tighter binding than chimeric 2G9 [8],fold tighter binding than chimeric 2G9 [9],kon [10],kon [11],IC50 (read off the curve) [12],fold drop in binding affinity compared to h2G9.K4G1 [13],Binder
0.08 nM,~1 nM,0.02 nM,1.8e-05 s⁻¹,758000 M⁻¹ s⁻¹,0.04 nM,2.5e-05 s⁻¹,646000 M⁻¹ s⁻¹,,,,,,,,,,,,,"chimeric 2G9 anti-Bv8 antibody (IgG) (antibody, V domains shown, also called chimeric 2G9 IgG) VH: EVQLQQSGPEVVKTGASVKISCKASGYSFTDYDMHWVKQSQGKSLEWIGYISCYNGATTYNQKFKGKATFTVDKSSTTAYMQFNSLTSEDSAVYYCARDGNYGEAYAMDYWGQGTSLTVSS VL: DIVLTQSPASLAVSLGQRATISCKASQSVDYDGDSYMNWYQQKPGQPPKLLIYAASNLESGIPARFSGSGSGTDFTLNIHPVEEEDAATYYCQQINEDPFTFGQGTKVEIK"
0.013 nM,,,,945000 M⁻¹ s⁻¹,,,775000 M⁻¹ s⁻¹,≤ 0.005 nM,≤ 5e-06 s⁻¹,≤ 0.005 nM,≤ 5e-06 s⁻¹,< 0.006 nM,< 5e-06 s⁻¹,≥ 2 fold,> 2 fold,950000 M⁻¹ s⁻¹,780000 M⁻¹ s⁻¹,,,"h2G9.K4G1.v55 IgG (antibody, V domains shown, Variable domains only; IgG, constant regions not described; claims 8 and 9); also called humanized 2G9 variant 55) VH: EVQLVQSGAEVKKPGASVKVSCKASGYSFTDYDMHWVRQAPGQGLEWIGYISSYSGATTYNQKFKGRVTITVDKSTSTAYLELSSLRSEDTAVYYCARDSNYGEAYAMDYWGQGTLVTVSS VL: DIVMTQSPDSLAVSLGERATINCKASQSLDYYHYSYMNWYQQKPGQPPKLLIYAASNRESGVPDRFSGSGSGTDFTLTISSLQAEDVAVYYCQQINEDPFTFGQGTKVEIKR"
,,,,,,,,,,,,,,,,,,~4 nM,100 fold,"h2G9.K4G1 variant CDR-H3 D95E (Fab, V domains shown) VH: EVQLVQSGAEVKKPGASVKVSCKASGYSFTDYDMHWVRQAPGQGLEWIGYISCYNGATTYNQKFKGRVTITVDKSTSTAYLELSSLRSEDTAVYYCAREGNYGEAYAMDYWGQGTLVTVSS VL: DIVMTQSPDSLAVSLGERATINCKASQSVDYDGDSYMNWYQQKPGQPPKLLIYAASNLESGVPDRFSGSGSGTDFTLTISSLQAEDVAVYYCQQINEDPFTFGQGTKVEIK"
